{
  "source": "patent US20260241035A1",
  "about": "“FUNCTIONAL NUCLEIC ACID MOLECULE AND METHOD” (THE UNIVERSITY COURT OF THE UNIVERSITY OF EDINBURGH, priority 2022, published 2026)",
  "data": [
    {"test_system": "GSC7 cells", "assay": "Nano-Glo Dual-Luciferase Reporter (Nanoglo DLR) assay of enhancer activity, fold change to mCMV", "assay_type": "cell-based, human", "settings": "expression fold change of the individual enhancer compared to mCMV", "excerpt": "We chose an arrayed library format, with 160 bp enhancer fragments individually cloned into separate plasmids and arrayed in 96 well plates. These 160 bp were synthesized as a single pool of oligos, then randomly cloned into the plasmid and isolated. 20 bp×2 were needed for PCR amplification of the pool and so a library of 200 bp fragments was synthesized (Twist Biosciences). To meet our oligo synthesis strategy, ChIP-seq peaks expressed by GSCs were merged into a single oligo. This oligonucleotide pool was PCR-amplified (using limited cycles to reduce bias and ‘jackpot’ products meaning products which are easier to amplify will overtake the oligonucleotide pool) and cloned into the expression vector by an efficient Golden Gate reaction. 4579 individual plasmids were then randomly picked, isolated and plated as an arrayed plasmid DNA library on 96 well plates (×48). The bacterial colony picking and production of plasmid minipreps were supported by the Edinburgh Genome Foundry (S. Rosser). This library was then screened using the optimised Nanoglo DLR assay (Nano-Glo Dual-Luciferase Reporter Assay, Promega) in 384 well format. Each plate was transiently transfected together with PGK-FFLuc in a 1:10 ratio into GSC7 cells. 2 days later a Nanoglo DLR assay was performed and assayed on a plate reader.\nCells were seeded in 384 well plates using a multidrop and transfected the following day using the CyBio Felix. Two days later the experiment was terminated with a Nanoglo DLR assay and all hits with a fold change to mCMV greater than 10 were Sanger sequenced and mapped back to the genome.\nCells were seeded at the required density. The following day the transfection was carried out. For this the Plus reagent and Lipofectamine LTX (Life Technologies, 15338030) were each diluted in half the volume of Opti-MEM I Reduced-Serum Medium (further referred to as Optimem) (Life Technologies, 31985062). Following this step, the Plus reagent/Optimem premix was added to all DNA samples followed by the Lipofectamine LTX/Optimem premix. The transfection mix was incubated for 5 min at room temperature and then carefully dropped on the cells. Generally, no media change was carried out. Cells were analysed two days following transfection.\nThis assay consists of two steps. The transfection was carried out using a normalisation plasmid PGK-Firefly-Luciferase (Promega, E5011) that was transfected in a 1/10 ratio with the plasmid of interest. First, the Firefly Luciferase activity is measured which allows to normalise to transfection efficiency. In a second step, the activity of Nanoluc is determined which is the readout of the plasmid of interest. Cells were washed 3× with PBS and 20 μl was left in the 96 well plate after the final wash (25 μl in 384 well). Oneglo buffer was added and the plate was shaken for 5 min at 480 rpm to allow cell lysis. 20 μl cell lysate in 96 well format or 25 μl cell lysate in 384 well format was then transferred into the corresponding opaque white plate and luminescence was measured at for 0.1 s per well using the Ensight Multimode Plate Reader. For the following Nanoluc reaction in a 96 well format 2 μl cell lysate was transferred into an opaque white plate containing 40 μl PBS, and 20 μl Stopglo buffer, supplemented with substrate, was added to each well. In a 384 well format 20 μl Stopglo buffer containing substrate were added on top of the undiluted cell lysate. The plate was shaken again for 5 min at 480 rpm to quench the firefly luciferase reaction and ensure good mixing. Nanoluc activity was measured for 0.1 s per well, again using Ensight Multimode Plate Reader.\nData obtained by the Nanoluc reaction was normalised to Firefly reaction to account for well-to-well variability of transfection efficiency. Normalised data were used to calculate the fold change to the empty vector control mCMV.", "units": {"Fold change (Median)": "fold"}, "values": [
      {"molecule": "CSE061: clustered SOX dimer motif enhancer, SEQ ID NO: 48 (nucleic acid) DNA: GAACAGCACTTAAATATTAATAGCATCACTGGGAAAACACGACAGCTATTTCCCTGTTTTCTGCAGCTCAATGAAGAGTTGTTCAGTGCAGACCCCAGTGCTCTTGCCTCATGAATGGACGTGATTGTGGGGACATCATCTCCTACTAAGGCAAAACGTGACACTGAGAACAAAGGCTGGTTTTTAGCCTGATGTGATGAGCTCACCCCAGTGCCCATGTGGGGACTTTGAAGCTCGTCCAGGTGCCAGTTTTCTGTGTATATGACATTCTTGGTTGGGGAGGGTGTGGACTGGGCAGCAGGCTTT", "Fold change (Median)": 58.3},
      {"molecule": "ID0876: enhancer fragment, SEQ ID NO: 8 (nucleic acid) DNA: GAGCAGGCAGTCATTTGGTTCCCTTCTCTGAATGCATTGGCTCTGATCCACGGCGCCTCAGGAAGTGAAAGGGAGCAGGCAGTGAGGCCAAGCCATGAATGTTGGGCCCTTTTCTTAGAAAACAAAGGGTTCACTTTAGGCTAGGAGGAAACATCCGGGG", "Fold change (Median)": 91.1},
      {"molecule": "CSE025: clustered SOX dimer motif enhancer, SEQ ID NO: 45 (nucleic acid) DNA: ATGGACAATGGCAGCCTGAAAGAATATGAGGGAGGGTCACCAGTGATGGACATGGTTTGGGGAGAGCCCAAGAATTGAAGGGGACTTGGGATTGTTGACAGACCTTCCACATCTCAGAATGGGGGAAGTGGTTTCTTTTTTCCTCATTCTCCAAGGCTTCTCAGTCTCAGAGACCCCAAGAGATGCCATTAATACAGATTCCTCCTCTGGCTCCTTTGAGACATTTGCTTTTGAAGGACCTGGAAGAGAAAGCTCTTTGTATGTGGCCAGAATAAACTCATTGTACACCCAAACAATTAACTCCTCAATGGACTTGCCAGCCCCTTGAAAGGCCTGGCCCTGCGTCCCTGGACCTCTTGGGCTCTATTCAGTCCCTTAAGCACACCAATGTTTTTGGGTTTTTGTTTTGTTTTGTTTGTTATTCTGAAAAGTCTTTCCCTGAGAATAGTCTGAGCGGATCAACATTGTCCTCAGCCTGGCATTTATCTCTCCTCGCCAGCGAATGTCAATCAGGAATCAAAAAGCCAAACAGAGGAGGCTTTGAACGGTGTCATCGGGGGTCGAAGTGACTTCCAGCTGTCTGTGCGTGGGCCAGGCCTTCTCGCAGGGCAAGGAATTGTGCTGTCACACAAACCCACTGTCTGTATAGGCTCACAGAGCCCA", "Fold change (Median)": 21.3},
      {"molecule": "CSE033: clustered SOX dimer motif enhancer, SEQ ID NO: 46 (nucleic acid) DNA: CTGGGGAACAAAACTTAGATCTTGATCATCCAGCATAGCTCTGGCATGCTGAGCGTGTGATACACCTGTCTCTACCGTCAGGCAAACGAGTGGGTTCACAGGCAGAGGCCTGCCCTGCCAAACAATGCTCCCCTTTGTCCCCGCCCAGGGCTCAGGAGCCGCAAGGAAGCCAAATCCATCAGCACTTGTCAGGGCCCTTGATGCACACAATGCAAGTTATGATCCACAGTCCCCGGCAAAGCCCCAGGCTTCCAGCAGGCAGCATTAACTGACACGCAATGTGTCAGTCAGCCTTCTAAAAGCCAGGGGTGGGGATCCGTGCCAGGGGGCCACTGAGCTCTCATTCCCAGAAGCCAACCAGAGCC", "Fold change (Median)": 20.9},
      {"molecule": "CSE014: clustered SOX dimer motif enhancer, SEQ ID NO: 47 (nucleic acid) DNA: GCCTTTTAGCTGATTAACAAATACAGTGAATTTAACTTTGTAGATTCTTAACATTTAAAGACAACAGTCTAAGGCAATTTAAAGTATATTCTGCCAATCAGTTGTTGAGTTAGACCACCCATAGCCTTTTTTTATTCTTCATTGTTTGAATAATATGGGAGGAAATTTAGTGTATACTCTCTTCTTCCTGTATTTTCCAGTTAGATTAAGCTGTTGTCTTCACAATTGCCTCCCAGCTGCTGTGACTTGTGAAAACAACAGACCCTGCTCTGTTGTCTGGAGAAAGCCGGGATTGTTATGAGTAACTTTATTGCAGGCACATGAGTGTGTTAAGACTTTAAAACACGCTCAAATGTCATGTGCACACCCAATGACGGGCAAGAATAATTATGAAAAAACAAGAAATCTATGTCTATGAAACCGTGTTGGACAAAATGGGCCATTCATTGTGTTCCCCTGGGAATGCCTGGACTCTGCAGTCAGAAAACAAAAAAGGCACTTTTTTCCTGCCGTAGGCTGAATGCTTAGCTTTGCCATCTGAGCCCTAAGAAAACATGGGCCCCTCTACTGCTGGCGCACCCACGCACACTAAAAAATATTAATGCCTCTCTCTCCTTACTTTTTTCCAGGCATTCCCTCGTGTAGGCTGTAGCCAATATAATGTCAACACAAA", "Fold change (Median)": 27.7},
      {"molecule": "CSE088: clustered SOX dimer motif enhancer, SEQ ID NO: 44 (nucleic acid) DNA: CTCGATACCCACATTCCTAACCTTTTAATGCCAAGCAGCCTATAAGCATGTCAAATTTTACTCATGTTCCTGCTCTTTCCACTCAAGTTGGCTTTGTGGGTTGCTGGTTTTATCAAAATTGAGTGAGAGTGTGTTCAATACAATGTTGGATTCATTAGGGAGAAAAAAGCCAAATAAAAACCTTGCTTCTTCAATGCCAGGAGCTTACAAAGACATATAAACCATGAGGAATTCCAAGGACTTGCTCAGAAGCCGTTCTGCAAATGCATTTCTTGAACAAAGGGCCAATGTTCCTTTCAGGGAAGAGCGCGGGACTGGTTTCCGGCATTTTTCTTTAAATCATTAGGACCATGCCAGCAAACAAACATATACAGCCCCTGGGAGAAAGAATCTCATTCAACACAGCTTACAAGAGTTTGATTATTAGGGAGGGGTGCTTCATGGCACGTGCCTCACCAGCCGGCCCCCAAATGTACAGATCTGTTTAAAGGGCTTTATTGATGGTGGCCGCAGACAGATAGAGCTTGTGAGGAGAACTGACATCCCATGGATACTAACATATCAGCATCATCCTGACCAGCACACAATCCAGTCAGAGAGAGCTGAAAAGTCTGCCTCATTCCCTTGAAAATGTGCTTCTTAAGACAAATAAAATATAGAAATAAGAAATTCACCTC", "Fold change (Median)": 16.5},
      {"molecule": "CSE075: clustered SOX dimer motif enhancer, SEQ ID NO: 49 (nucleic acid) DNA: ATAAGCCCTTTAAATTAAATCTTTATGCAGATTCTATTTTATACTCCAAACTTTTCATGGAGCCTTGTGTAATTCTGATGTGTAAACCAACAAACAGAGAGGCTCTGTGTATGGAGTAGCTGGTTTGGATACCAGCTGGCTTGGCTGTGCGCCTTTCTAATGGTAATGAAGTCACACAGCTGCTAGGACAATCAGCTGGAGTTCAGATTGTCACTAGCTAAATGGATATCCATTGACTAGCTTCTTATCCGGACTCATTAAAGTTTAGTATTGACAAATAGTGGCTGGAGGTTTACAACTAAGAGGCATGTAGAAATGAACTTGTTGACTATTTTTTCCCTATAGCTTTTGCTTTGTGATTCACAGAATGTCATTCATC", "Fold change (Median)": 58.1},
      {"molecule": "CSE054: clustered SOX dimer motif enhancer, SEQ ID NO: 50 (nucleic acid) DNA: GCCAACAACTCATATAGTGGAGGCTTGAGCACACCATGCTTATTCCCAGAGTTCCAATGCTCTGCTTTTGAACCATTACCATGCCTTTCAGCAGCACTGTCAACAGAGCTCAGAGAAGGTCTTGAACTCCAGAGAATGAATGAGATATGCCAAATGAAGCATAATTACTTTATTGACGTCATTCAGCTTTCAACTCACATTTAATGAGAAAGCTTCTACTGCTTGAAACAGTGGGCCATTTGTAGCACATTATGCAAATGATAAGACTAATCTTTTGCATTATACATAAGAGCTGCTTATTGTGCATTAACTAATTTATCTGACTAGGAAGGGGCTATGAATGCTGATTTTTATTAAGCTCTTCATTAAGTGAAAATGTAGGCATGGCAAGTGCATAT", "Fold change (Median)": 65.7}
    ]}
  ]
}
